In paper PMC2978023 one finds Kd, MFI of bound ligand and PMN early/late apoptosis (% annexin V+ cells), 16 h, Plg 1 μM with NIF (50 nM) data, which are given here for three substances.

For assay [1], the target named is recombinant purified integrin αMβ2 (UniProt P11215). The experiment in a line: ELISA.
Assay [2] deals with recombinant purified αM integrin subunit (UniProt P11215). The experiment in a line: ELISA. On the technique in general: In an ELISA, binding on a coated surface is turned into a signal by an enzyme label.
In assay [3] the target is recombinant purified β2 integrin subunit (UniProt P05107). Briefly: ELISA.
In assay [4] the target is αM/αLβ2 chimera (UniProt P05107). Briefly: flow cytometry on cells. In general terms: In flow cytometry, cells or beads pass a laser one at a time.
The target in assay [5] is integrin αMβ2 on human PMNs (human (endogenous in PMNs)) (UniProt P11215).
In assay [6] the target is wild-type αMβ2 on transfected K562 cells (UniProt P11215). Briefly: flow cytometry on cells.
Assay [7] deals with αM(1119Δ)β2 (UniProt P11215). The experiment in a line: flow cytometry on cells.
The target of assay [8] is αMβ2(728Δ) (UniProt P11215). Briefly: flow cytometry on cells.

Ang(1–4), angiostatin composed of four kringle domains of Plg, sequence (P00747 20-810): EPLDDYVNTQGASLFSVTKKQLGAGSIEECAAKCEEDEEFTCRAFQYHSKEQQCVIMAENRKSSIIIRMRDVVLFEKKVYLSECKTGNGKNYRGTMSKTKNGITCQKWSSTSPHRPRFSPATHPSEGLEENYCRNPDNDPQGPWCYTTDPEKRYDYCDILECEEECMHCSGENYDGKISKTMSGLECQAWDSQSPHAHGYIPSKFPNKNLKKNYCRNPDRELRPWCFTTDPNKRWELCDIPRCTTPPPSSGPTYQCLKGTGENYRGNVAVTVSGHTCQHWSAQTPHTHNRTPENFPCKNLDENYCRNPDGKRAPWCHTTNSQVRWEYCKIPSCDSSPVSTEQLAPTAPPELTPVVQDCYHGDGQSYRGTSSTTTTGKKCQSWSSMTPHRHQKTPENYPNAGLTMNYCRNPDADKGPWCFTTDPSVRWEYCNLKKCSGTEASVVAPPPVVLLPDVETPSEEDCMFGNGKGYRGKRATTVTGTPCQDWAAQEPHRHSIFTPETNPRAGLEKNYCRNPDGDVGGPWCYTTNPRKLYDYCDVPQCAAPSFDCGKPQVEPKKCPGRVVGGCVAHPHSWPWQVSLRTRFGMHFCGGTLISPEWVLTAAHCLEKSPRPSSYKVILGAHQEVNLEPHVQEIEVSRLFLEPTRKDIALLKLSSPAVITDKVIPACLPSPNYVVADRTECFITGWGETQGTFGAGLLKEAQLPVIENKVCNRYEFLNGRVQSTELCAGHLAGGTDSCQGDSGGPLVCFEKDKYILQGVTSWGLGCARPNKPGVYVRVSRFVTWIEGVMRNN

The term Kd denotes the constant that tells how readily two partners part at equilibrium. With “Ang(1–4), angiostatin composed of four kringle domains of Plg (from UniProt P00747 20-810) (domain or fragment)”, the Kd was 0.5 µM in assay [1], 0.4 µM in assay [2] and greater than 100 µM in assay [3].

As to “human fibrinogen (from UniProt P02671-2 20-644; P02675 31-491; P02679-2 27-437) (complex)”, in assay [4], the MFI of bound ligand came out at 129 MFI.

As to plasminogen (Glutamic Plg) (ligand), in assay [5], the PMN early/late apoptosis (% annexin V+ cells), 16 h, Plg 1 μM with NIF (50 nM) came to 90%. Further, the MFI of bound ligand in assay [6] was 130 MFI; in assay [7], 145 MFI; in assay [4] it was 135 MFI; in assay [8], 152 MFI. In addition, the Kd amounted to 0.1 µM in assay [2] and 0.5 µM in assay [3].
